For orientation: Kd means the free concentration of one partner at which half of the binding sites on the other are occupied at equilibrium, for simple one-to-one binding. Read a low Kd as tighter binding.

Positions count from the first letter of the chain named. Numbers in names are those of the source.

From US20260193342A1 (ZOETIS SERVICES, published 2026) come the findings set out here.

Sequences and labels used below:
B1: mAb1, caninized anti-IL31 antibody 34D03, canine IgGA, WT (antibody)
heavy: EVQLVESGGDLVKPGGSLRLSCVASGFTFSNYGMSWVRQAPGKGLQWVATISYGGSYTYYPDNIKGRFTISRDNAKNTLYLQMNSLRAEDTAMYYCVRGYGYDTMDYWGQGTLVTVSSASTTAPSVFPLAPSCGSTSGSTVALACLVSGYFPEPVTVSWNSGSLTSGVHTFPSVLQSSGLHSLSSMVTVPSSRWPSETFTCNVVHPASNTKVDKPVFNECRCTDTPPCPVPEPLGGPSVLIFPPKPKDILRITRTPEVTCVVLDLGREDPEVQISWFVDGKEVHTAKTQSREQQFNGTYRVVSVLPIEHQDWLTGKEFKCRVNHIDLPSPIERTISKARGRAHKPSVYVLPPSPKELSSSDTVSITCLIKDFYPPDIDVEWQSNGQQEPERKHRMTPPQLDEDGSYFLYSKLSVDKSRWQQGDPFTCAVMHETLQNHYTDLSLSHSPGK
VL: EIVMTQSPASLSLSQEEKVTITCKASQSVSFAGTGLMHWYQQKPGQAPKLLIYRASNLEAGVPSRFSGSGSGTDFSFTISSLEPEDVAVYYCQQSREYPWTFGQGTKLEIK
notes: VH/VL: the caninized 34D03 entries of the listing; also called ID No. 1
B2: mAb1, caninized anti-IL31 antibody 34D03, canine IgGA, N434W (antibody)
heavy: B1 heavy with N436W
light: EIVMTQSPASLSLSQEEKVTITCKASQSVSFAGTGLMHWYQQKPGQAPKLLIYRASNLEAGVPSRFSGSGSGTDFSFTISSLEPEDVAVYYCQQSREYPWTFGQGTKLEIKRNDAQPAVYLFQPSPDQLHTGSASVVCLLNSFYPKDINVKWKVDGVIQDTGIQESVTEQDKDSTYSLSSTLTMSSTEYLSHELYSCEITHKSLPSTLIKSFQRSEC
notes: VH/VL: the caninized 34D03 entries of the listing; also called ID No. 6; copies: 2 + 2
B3: mAb1, caninized anti-IL31 antibody 34D03, canine IgGA, N434F (antibody)
chain 1: B1 heavy with N436F
chain 2: B2 light
B4: mAb1, caninized anti-IL31 antibody 34D03, canine IgGA, N434H (antibody)
chain 1: B1 heavy with N436H
chain 2: B2 light
B5: mAb1, caninized anti-IL31 antibody 34D03, canine IgGA, N434R (antibody)
chain 1: B1 heavy with N436R
chain 2: B2 light
B6: mAb2 of Table 4A, caninized anti-NGF antibody ZTS-841, canine IgGA, WT (antibody)
heavy: EVQLVESGGDLVKPGGSLRLSCVASGFTFSSHGMHWVRQSPGKGLQWVAVINSGGSSTYYTDAVKGRFTISRDNAKNTVYLQMNSLRAEDTAMYYCAKESVGGWEQLVGPHFDYWGQGTLVIVSSASTTAPSVFPLAPSCGSTSGSTVALACLVSGYFPEPVTVSWNSGSLTSGVHTFPSVLQSSGLHSLSSMVTVPSSRWPSETFTCNVVHPASNTKVDKPVFNECRCTDTPPCPVPEPLGGPSVLIFPPKPKDILRITRTPEVTCVVLDLGREDPEVQISWFVDGKEVHTAKTQSREQQFNGTYRVVSVLPIEHQDWLTGKEFKCRVNHIDLPSPIERTISKARGRAHKPSVYVLPPSPKELSSSDTVSITCLIKDFYPPDIDVEWQSNGQQEPERKHRMTPPQLDEDGSYFLYSKLSVDKSRWQQGDPFTCAVMHETLQNHYTDLSLSHSPGK
VL: QSVLTQPTSVSGSLGQRVTISCSGSTNNIGILGASWYQLFPGKAPKLLVYGNGNRPSGVPDRFSGADSGDSVTLTITGLQAEDEADYYCQSFDTTLGAHVFGGGTHLTVL
notes: also called ID No. 39
B7: mAb2 of Table 4A, caninized anti-NGF antibody ZTS-841, canine IgGA, N434R (antibody)
heavy: B6 heavy with N443R
VL: B6 VL
notes: also called ID No. 42
B8: mAb2 of Table 4A, caninized anti-NGF antibody ZTS-841, canine IgGA, N434H (antibody)
heavy: B6 heavy with N443H
VL: B6 VL
notes: also called ID No. 41
B9: mAb2 of Table 4A, caninized anti-NGF antibody ZTS-841, canine IgGA, N434F (antibody)
heavy: B6 heavy with N443F
VL: B6 VL
notes: also called ID No. 40
B10: mAb2 of Table 4A, caninized anti-NGF antibody ZTS-841, canine IgGA, N434S (antibody)
heavy: B6 heavy with N443S
VL: B6 VL
notes: also called ID No. 43

The target in the experiment is canine FcRn complex (FcRn-α subunit and β-microglobulin) (canine, UniProt A0A8I3PFR8 25-347, biotin on the BAP tag by BirA (Example 5 only)). The experiment is described as follows: SPR (Biacore), biotinylated FcRn on SA chip, IgG flowed, pH 6, 15 C.
canine FcRn complex (FcRn-α subunit and β-microglobulin), sequence (A0A8I3PFR8 entry or part of it, one chain of several): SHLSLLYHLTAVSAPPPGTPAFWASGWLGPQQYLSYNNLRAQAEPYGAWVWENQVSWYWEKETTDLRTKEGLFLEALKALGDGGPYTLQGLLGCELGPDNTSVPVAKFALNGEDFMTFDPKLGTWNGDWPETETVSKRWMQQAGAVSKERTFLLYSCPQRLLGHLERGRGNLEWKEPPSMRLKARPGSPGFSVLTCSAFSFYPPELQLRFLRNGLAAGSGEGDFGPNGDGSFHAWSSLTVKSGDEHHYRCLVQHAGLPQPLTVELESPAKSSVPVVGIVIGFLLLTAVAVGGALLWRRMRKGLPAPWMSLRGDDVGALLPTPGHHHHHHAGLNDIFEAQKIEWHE
The molecule B1 returned a Kd of 79.9 nM.
For B2 the value was 19.9 nM; for B3, 12.7 nM; for B4, 12.3 nM.
For B5 the value was 43.8 nM.
For B6 the value was 95.5 nM.
B7 returned a Kd of 15.1 nM.
The value for B8 was 10.4 nM; that for B9 was 9.81 nM; that for B10 was 147 nM.
